Numbered stars: 1 amine (or outer) side, 2 acyl side, 3 side chain; on linkers, the order of the positions; unused ones are H or OH. Square brackets hold non-standard residues; d marks the D form. Side chains are listed from the residue outwards. Ends that are not written are not given here. * marks the point of attachment. C20 diacid = O=C(O)CCCCCCCCCCCCCCCCCCC(=O)*; γGlu = O=C(O)[C@H](CCC(=O)[*:2])N[*:1]; AEEA = NCCOCCOCC(=O)O; Aib = CC(C)(N)C(=O)O
T1: human GIP receptor (human, UniProt P48546 22-466)
T1 construct: whole, on cells; Used as crude membranes of stably transfected CHO cells; also called hGIPR
T1 sequence (looked up): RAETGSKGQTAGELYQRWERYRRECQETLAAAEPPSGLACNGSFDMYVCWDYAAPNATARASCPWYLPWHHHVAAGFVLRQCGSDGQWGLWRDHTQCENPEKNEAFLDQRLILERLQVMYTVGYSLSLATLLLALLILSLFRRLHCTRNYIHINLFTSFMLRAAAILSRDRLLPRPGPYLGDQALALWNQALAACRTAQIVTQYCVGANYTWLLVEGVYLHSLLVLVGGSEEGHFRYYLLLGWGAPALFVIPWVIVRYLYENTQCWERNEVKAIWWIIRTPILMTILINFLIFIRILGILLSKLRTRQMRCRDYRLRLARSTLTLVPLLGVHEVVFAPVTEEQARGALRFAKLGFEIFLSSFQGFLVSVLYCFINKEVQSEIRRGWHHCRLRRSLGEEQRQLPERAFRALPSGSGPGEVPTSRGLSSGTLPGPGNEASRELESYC


Experiments:
human GIP receptor = target: T1, human GIP receptor; experiment: SPA, [125I]-GIP displacement, hGIPR membranes
human GLP-1 receptor = target: T2, human GLP-1 receptor (human, UniProt P43220 24-463); experiment: SPA, [125I]-GLP-1 displacement, hGLP-1R membranes
T2 construct: whole, on cells; Used as crude membranes of stably transfected HEK293 cells; also called hGLP1R; hGLP-1R

| Binder | Ki (human GIP receptor) [nM] | Ki (human GLP-1 receptor) [nM] |
| --- | --- | --- |
| Y[Aib]EGTFTSDK([AEEA-AEEA-γGlu-C20 diacid])SILLDKIAQ[Aib]AFIEYLIEGGPSSGAPPPS-NH2 (N-terminus assumed; SMILES CC[C@H](C)[C@H](NC(=O)[C@H](CCCCN)NC(=O)[C@H](CC(=O)O)NC(=O)[C@H](CC(C)C)NC(=O)[C@H](CC(C)C)NC(=O)[C@@H](NC(=O)[C@H](CO)NC(=O)[C@H](CCCCNC(=O)COCCOCCNC(=O)COCCOCCNC(=O)CC[C@H](NC(=O)CCCCCCCCCCCCCCCCCCC(=O)O)C(=O)O)NC(=O)[C@H](CC(=O)O)NC(=O)[C@H](CO)NC(=O)[C@@H](NC(=O)[C@H](Cc1ccccc1)NC(=O)[C@@H](NC(=O)CNC(=O)[C@H](CCC(=O)O)NC(=O)C(C)(C)NC(=O)[C@@H](N)Cc1ccc(O)cc1)[C@@H](C)O)[C@@H](C)O)[C@@H](C)CC)C(=O)N[C@@H](C)C(=O)N[C@@H](CCC(N)=O)C(=O)NC(C)(C)C(=O)N[C@@H](C)C(=O)N[C@@H](Cc1ccccc1)C(=O)N[C@H](C(=O)N[C@@H](CCC(=O)O)C(=O)N[C@@H](Cc1ccc(O)cc1)C(=O)N[C@@H](CC(C)C)C(=O)N[C@H](C(=O)N[C@@H](CCC(=O)O)C(=O)NCC(=O)NCC(=O)N1CCC[C@H]1C(=O)N[C@@H](CO)C(=O)N[C@@H](CO)C(=O)NCC(=O)N[C@@H](C)C(=O)N1CCC[C@H]1C(=O)N1CCC[C@H]1C(=O)N1CCC[C@H]1C(=O)N[C@@H](CO)C(N)=O)[C@@H](C)CC)[C@@H](C)CC) [Example 23] | 0.258 | 6.32 |
| Y[Aib]EGTFTSDYSILLK([AEEA-AEEA-γGlu-C20 diacid])KIAQ[Aib]AFIEYLIEGGPSSGAPPPS-NH2 (N-terminus assumed; SMILES CC[C@H](C)[C@H](NC(=O)[C@H](CCCCN)NC(=O)[C@H](CCCCNC(=O)COCCOCCNC(=O)COCCOCCNC(=O)CC[C@H](NC(=O)CCCCCCCCCCCCCCCCCCC(=O)O)C(=O)O)NC(=O)[C@H](CC(C)C)NC(=O)[C@H](CC(C)C)NC(=O)[C@@H](NC(=O)[C@H](CO)NC(=O)[C@H](Cc1ccc(O)cc1)NC(=O)[C@H](CC(=O)O)NC(=O)[C@H](CO)NC(=O)[C@@H](NC(=O)[C@H](Cc1ccccc1)NC(=O)[C@@H](NC(=O)CNC(=O)[C@H](CCC(=O)O)NC(=O)C(C)(C)NC(=O)[C@@H](N)Cc1ccc(O)cc1)[C@@H](C)O)[C@@H](C)O)[C@@H](C)CC)C(=O)N[C@@H](C)C(=O)N[C@@H](CCC(N)=O)C(=O)NC(C)(C)C(=O)N[C@@H](C)C(=O)N[C@@H](Cc1ccccc1)C(=O)N[C@H](C(=O)N[C@@H](CCC(=O)O)C(=O)N[C@@H](Cc1ccc(O)cc1)C(=O)N[C@@H](CC(C)C)C(=O)N[C@H](C(=O)N[C@@H](CCC(=O)O)C(=O)NCC(=O)NCC(=O)N1CCC[C@H]1C(=O)N[C@@H](CO)C(=O)N[C@@H](CO)C(=O)NCC(=O)N[C@@H](C)C(=O)N1CCC[C@H]1C(=O)N1CCC[C@H]1C(=O)N1CCC[C@H]1C(=O)N[C@@H](CO)C(N)=O)[C@@H](C)CC)[C@@H](C)CC) [Example 28] | 0.24 | 21.1 |
| Y[Aib]EGTFTSDASILLDKK([AEEA-AEEA-γGlu-C20 diacid])AQ[Aib]AFIEYLIEGGPSSGAPPPS-NH2 (N-terminus assumed; SMILES CC[C@H](C)[C@H](NC(=O)[C@H](CC(C)C)NC(=O)[C@H](Cc1ccc(O)cc1)NC(=O)[C@H](CCC(=O)O)NC(=O)[C@@H](NC(=O)[C@H](Cc1ccccc1)NC(=O)[C@H](C)NC(=O)C(C)(C)NC(=O)[C@H](CCC(N)=O)NC(=O)[C@H](C)NC(=O)[C@H](CCCCNC(=O)COCCOCCNC(=O)COCCOCCNC(=O)CC[C@H](NC(=O)CCCCCCCCCCCCCCCCCCC(=O)O)C(=O)O)NC(=O)[C@H](CCCCN)NC(=O)[C@H](CC(=O)O)NC(=O)[C@H](CC(C)C)NC(=O)[C@H](CC(C)C)NC(=O)[C@@H](NC(=O)[C@H](CO)NC(=O)[C@H](C)NC(=O)[C@H](CC(=O)O)NC(=O)[C@H](CO)NC(=O)[C@@H](NC(=O)[C@H](Cc1ccccc1)NC(=O)[C@@H](NC(=O)CNC(=O)[C@H](CCC(=O)O)NC(=O)C(C)(C)NC(=O)[C@@H](N)Cc1ccc(O)cc1)[C@@H](C)O)[C@@H](C)O)[C@@H](C)CC)[C@@H](C)CC)C(=O)N[C@@H](CCC(=O)O)C(=O)NCC(=O)NCC(=O)N1CCC[C@H]1C(=O)N[C@@H](CO)C(=O)N[C@@H](CO)C(=O)NCC(=O)N[C@@H](C)C(=O)N1CCC[C@H]1C(=O)N1CCC[C@H]1C(=O)N1CCC[C@H]1C(=O)N[C@@H](CO)C(N)=O) [Example 85] | 0.621 | 1.87 |
| Y[Aib]EGTFTSDYSILLDKIAQ[Aib]AFIEYLIEK([AEEA-AEEA-γGlu-C20 diacid])GPSSGAPPPS-NH2 (N-terminus assumed; SMILES CC[C@H](C)[C@H](NC(=O)[C@H](CCCCN)NC(=O)[C@H](CC(=O)O)NC(=O)[C@H](CC(C)C)NC(=O)[C@H](CC(C)C)NC(=O)[C@@H](NC(=O)[C@H](CO)NC(=O)[C@H](Cc1ccc(O)cc1)NC(=O)[C@H](CC(=O)O)NC(=O)[C@H](CO)NC(=O)[C@@H](NC(=O)[C@H](Cc1ccccc1)NC(=O)[C@@H](NC(=O)CNC(=O)[C@H](CCC(=O)O)NC(=O)C(C)(C)NC(=O)[C@@H](N)Cc1ccc(O)cc1)[C@@H](C)O)[C@@H](C)O)[C@@H](C)CC)C(=O)N[C@@H](C)C(=O)N[C@@H](CCC(N)=O)C(=O)NC(C)(C)C(=O)N[C@@H](C)C(=O)N[C@@H](Cc1ccccc1)C(=O)N[C@H](C(=O)N[C@@H](CCC(=O)O)C(=O)N[C@@H](Cc1ccc(O)cc1)C(=O)N[C@@H](CC(C)C)C(=O)N[C@H](C(=O)N[C@@H](CCC(=O)O)C(=O)N[C@@H](CCCCNC(=O)COCCOCCNC(=O)COCCOCCNC(=O)CC[C@H](NC(=O)CCCCCCCCCCCCCCCCCCC(=O)O)C(=O)O)C(=O)NCC(=O)N1CCC[C@H]1C(=O)N[C@@H](CO)C(=O)N[C@@H](CO)C(=O)NCC(=O)N[C@@H](C)C(=O)N1CCC[C@H]1C(=O)N1CCC[C@H]1C(=O)N1CCC[C@H]1C(=O)N[C@@H](CO)C(N)=O)[C@@H](C)CC)[C@@H](C)CC) [Example 38] | 0.104 | 31.3 |
| Y[Aib]EGTFTSDYSILLDKIAQ[Aib]AFIEYK([AEEA-AEEA-γGlu-C20 diacid])IEGGPSSGAPPPS-NH2 (N-terminus assumed; SMILES CC[C@H](C)[C@H](NC(=O)[C@H](CCCCN)NC(=O)[C@H](CC(=O)O)NC(=O)[C@H](CC(C)C)NC(=O)[C@H](CC(C)C)NC(=O)[C@@H](NC(=O)[C@H](CO)NC(=O)[C@H](Cc1ccc(O)cc1)NC(=O)[C@H](CC(=O)O)NC(=O)[C@H](CO)NC(=O)[C@@H](NC(=O)[C@H](Cc1ccccc1)NC(=O)[C@@H](NC(=O)CNC(=O)[C@H](CCC(=O)O)NC(=O)C(C)(C)NC(=O)[C@@H](N)Cc1ccc(O)cc1)[C@@H](C)O)[C@@H](C)O)[C@@H](C)CC)C(=O)N[C@@H](C)C(=O)N[C@@H](CCC(N)=O)C(=O)NC(C)(C)C(=O)N[C@@H](C)C(=O)N[C@@H](Cc1ccccc1)C(=O)N[C@H](C(=O)N[C@@H](CCC(=O)O)C(=O)N[C@@H](Cc1ccc(O)cc1)C(=O)N[C@@H](CCCCNC(=O)COCCOCCNC(=O)COCCOCCNC(=O)CC[C@H](NC(=O)CCCCCCCCCCCCCCCCCCC(=O)O)C(=O)O)C(=O)N[C@H](C(=O)N[C@@H](CCC(=O)O)C(=O)NCC(=O)NCC(=O)N1CCC[C@H]1C(=O)N[C@@H](CO)C(=O)N[C@@H](CO)C(=O)NCC(=O)N[C@@H](C)C(=O)N1CCC[C@H]1C(=O)N1CCC[C@H]1C(=O)N1CCC[C@H]1C(=O)N[C@@H](CO)C(N)=O)[C@@H](C)CC)[C@@H](C)CC) [Example 35] | 0.0358 | 54.6 |
| Y[Aib]EGTFTSDYSILLDKIAQ[Aib]AFK([AEEA-AEEA-γGlu-C20 diacid])EYLIEGGPSSGAPPPS-NH2 [Example 33] | 6.4 | 361 |
| Y[Aib]EGTFTSDYSIK([AEEA-AEEA-γGlu-C20 diacid])LDKIAQ[Aib]AFIEYLIEGGPSSGAPPPS-NH2 (N-terminus assumed; SMILES CC[C@H](C)[C@H](NC(=O)[C@H](CCCCN)NC(=O)[C@H](CC(=O)O)NC(=O)[C@H](CC(C)C)NC(=O)[C@H](CCCCNC(=O)COCCOCCNC(=O)COCCOCCNC(=O)CC[C@H](NC(=O)CCCCCCCCCCCCCCCCCCC(=O)O)C(=O)O)NC(=O)[C@@H](NC(=O)[C@H](CO)NC(=O)[C@H](Cc1ccc(O)cc1)NC(=O)[C@H](CC(=O)O)NC(=O)[C@H](CO)NC(=O)[C@@H](NC(=O)[C@H](Cc1ccccc1)NC(=O)[C@@H](NC(=O)CNC(=O)[C@H](CCC(=O)O)NC(=O)C(C)(C)NC(=O)[C@@H](N)Cc1ccc(O)cc1)[C@@H](C)O)[C@@H](C)O)[C@@H](C)CC)C(=O)N[C@@H](C)C(=O)N[C@@H](CCC(N)=O)C(=O)NC(C)(C)C(=O)N[C@@H](C)C(=O)N[C@@H](Cc1ccccc1)C(=O)N[C@H](C(=O)N[C@@H](CCC(=O)O)C(=O)N[C@@H](Cc1ccc(O)cc1)C(=O)N[C@@H](CC(C)C)C(=O)N[C@H](C(=O)N[C@@H](CCC(=O)O)C(=O)NCC(=O)NCC(=O)N1CCC[C@H]1C(=O)N[C@@H](CO)C(=O)N[C@@H](CO)C(=O)NCC(=O)N[C@@H](C)C(=O)N1CCC[C@H]1C(=O)N1CCC[C@H]1C(=O)N1CCC[C@H]1C(=O)N[C@@H](CO)C(N)=O)[C@@H](C)CC)[C@@H](C)CC) [Example 26] | 0.176 | 4.22 |
| YXEGTXTSDXSIXLDEKAQXEFIXYLIEGGPSSGAPPPS (Aib2; αMeF(2F)6; 4Pal10; αMeL13; K17((2-[2-(2-Amino-ethoxy)-ethoxy]-acetyl)2-(γ-Glu)-CO-(CH2)16-CO2H); Aib20; D-Glu24; C-terminal NH2) [Example 204] | 0.0704 | – |

— US20200024322A1 (Eli Lilly, published 2020)
